The chains are these.
B1: ADP117 (protein)
chain: MAAPGSARRPLLLLLLLLLLGLMHCASAAMFMVKNGNGTACIMANFSAAFSVNYDTKSGPKNMTFDLPSDATVVLNRSSCGKENTSDPSLVIAFGRGHTLTLNFTRNATRYSVQLMSFVYNLSDTHLFPNASSKEIKTVESITDIRADIDKKYRCVSGTQVHMNNVTVTLHDATIQAYLSNSSFSRGETRCEQDRPSPTTAPPAPPSPSPSPVPKSPSVDKYNVSGTNGTCLLASMGLQLNLTYERKDNTTVTRLLNINPNKTSASGSCGAHLVTLELHSEGTTVLLFQFGMNASSSRFFLQGIQLNTILPDARDPAFKAANGSLRALQATVGNSYKCNAEEHVRVTKAFSVNIFKVWVQAFKVEGGQFGSVEECLLDENSMLIP
modifications: bait human Fc-tagged dimer
B2: ADP154 (protein)
chain: MAGKWLLCMLLVLGTAIVEAHDGHDDDVIDIEDDLDDVIEEVEDSKPDTTAPPSSPKVTYKAPVPTGEVYFADSFDRGTLSGWILSKAKKDDTDDEIAKYDGKWEVEEMKESKLPGDKGLVLMSRAKHHAISAKLNKPFLFDTKPLIVQYEVNFQNGIECGGAYVKLLSKTPELNLDQFHDKTPYTIMFGPDKCGEDYKLHFIFRHKNPKTGIYEEKHAKRPDADLKTYFTDKKTHLYTLILNPDNSFEILVDQSVVNSGNLLNDMTPPVNPSREIEDPEDRKPEDWDERPKIPDPEAVKPDDWDEDAPAKIPDEEATKPEGWLDDEPEYVPDPDAEKPEDWDEDMDGEWEAPQIANPRCESAPGCGVWQRPVIDNPNYKGKWKPPMIDNPSYQGIWKPRKIPNPDFFEDLEPFRMTPFSAIGLELWSMTSDIFFDNFIICADRRIVDDWANDGWGLKKAADGAAEPGVVGQMIEAAEERP
modifications: bait human Fc-tagged dimer
B3: ADP353 (protein)
chain: MAARWRFWCVSVTMVVALLIVCDVPSASAQRKKEMVLSEKVSQLMEWTNKRPVIRMNGDKFRRLVKAPPRNYSVIVMFTALQLHRQCVVCKQADEEFQILANSWRYSSAFTNRIFFAMVDFDEGSDVFQMLNMNSAPTFINFPAKGKPKRGDTYELQVRGFSAEQIARWIADRTDVNIRVIRPP
modifications: bait human Fc-tagged dimer
B4: ADP136 (protein)
chain: MVRIAGALRTLLPLLAALLQASVEASGEIALCKTGFPEDVYSAVLSKDVHEGQPLLNVKFSNCNGKRKVQYESSEPADFKVDEDGMVYAVRSFPLSSEHAKFLIYAQDKETQEKWQVAVKLSLKPTLTEESVKESAEVEEIVFPRQFSKHSGHLQRQKRDWVIPPINLPENSRGPFPQELVRIRSDRDKNLSLRYSVTGPGADQPPTGIFIINPISGQLSVTKPLDREQIARFHLRAHAVDINGNQVENPIDIVINVIDMNDNRPEFLHQVWNGTVPEGSKPGTYVMTVTAIDADDPNALNGMLRYRIVSQAPSTPSPNMFTINNETGDIITVAAGLDREKVQQYTLIIQATDMEGNPTYGLSNTATAVITVTDVNDNPPEFTAMTFYGEVPENRVDIIVANLTVTDKDQPHTPAWNAVYRISGGDPTGRFAIQTDPNSNDGLVTVVKPIDFETNRMFVLTVAAENQVPLAKGIQHPPQSTATVSVTVIDVNENPYFAPNPKIIRQEEGLHAGTMLTTFTAQDPDRYMQQNIRYTKLSDPANWLKIDPVNGQITTIAVLDRESPNVKNNIYNATFLASDNGIPPMSGTGTLQIYLLDINDNAPQVLPQEAETCETPDPNSINITALDYDIDPNAGPFAFDLPLSPVTIKRNWTITRLNGDFAQLNLKIKFLEAGIYEVPIIITDSGNPPKSNISILRVKVCQCDSNGDCTDVDRIVGAGLGT
modifications: bait human Fc-tagged dimer
B5: ADP128 (protein)
chain: MAAEGWIWRWGWGRRCLGRPGLLGPGPGPTTPLFLLLLLGSVTADITDGNSEHLKREHSLIKPYQGVGSSSMPLWDFQGSTMLTSQYVRLTPDERSKEGSIWNHQPCFLKDWEMHVHFKVHGTGKKNLHGDGIALWYTRDRLVPGPVFGSKDNFHGLAIFLDTYPNDETTERVFPYISVMVNNGSLSYDHSKDGRWTELAGCTADFRNRDHDTFLAVRYSRGRLTVMTDLEDKNEWKNCIDITGVRLPTGYYFGASAGTGDLSDNHDIISMKLFQLMVEHTPDEESIDWTKIEPSVNFLKSPKDNVDDPTGNFRSGPLT
modifications: bait human Fc-tagged dimer
B6: ADP118 (protein)
chain: MARAAALLPSRSPPTPLLWPLLLLLLLETGAQDVRVQVLPEVRGQLGGTVELPCHLLPPVPGLYISLVTWQRPDAPANHQNVAAFHPKMGPSFPSPKPGSERLSFVSAKQSTGQDTEAELQDATLALHGLTVEDEGNYTCEFATFPKGSVRGMTWLRVIAKPKNQAEAQKVTFSQDPTTVALCISKEGRPPARISWLSSLDWEAKETQVSGTLAGTVTVTSRFTLVPSGRADGVTVTCKVEHESFEEPALIPVTLSVRYPPEVSISGYDDNWYLGRTDATLSCDVRSNPEPTGYDWSTTSGTFPTSAVAQGSQLVIHAVDSLFNTTFVCTVTNAVGMGRAEQVIFVRETPNTAGAGAT
modifications: bait human Fc-tagged dimer
B7: ADP358 (protein)
chain: MARSPGRAYALLLLLICFNVGSGLHLQVLSTRNENKLLPKHPHLVRQKRAWITAPVALREGEDLSKKNPIAKIHSDLAEERGLKITYKYTGKGITEPPFGIFVFNKDTGELNVTSILDREETPFFLLTGYALDARGNNVEKPLELRIKVLDINDNEPVFTQDVFVGSVEELSAAHTLVMKINATDADEPNTLNSKISYRIVSLEPAYPPVFYLNKDTGEIYTTSVTLDREEHSSYTLTVEARDGNGEVTDKPVKQAQVQIRILDVNDNIPVVENKVLEGMVEENQVNVEVTRIKVFDADEIGSDNWLANFTFASGNEGGYFHIETDAQTNEGIVTLIKEVDYEEMKNLDFSVIVANKAAFHKSIRSKYKPTPIPIKVKVKNVKEGIHFKSSVISIYVSESMDRSSKGQIIGNFQAFDEDTGLPAHARYVKLEDRDNWISVDSVTSEIKLAKLPDFESRYVQNGTYTVKIVAISEDYPRKTITGTVLINVEDINDNCPTLIEPVQTICHDAEYVNVTAEDLDGHPNSGPFSFSVIDKPPGMAEKWKIARQESTSVLLQQSEKKLGRSEIQFLISDNQGFSCPEKQVLTLTVCECLHGSGCREAQHDSYVGLGP
modifications: bait human Fc-tagged dimer
B8: ADP262 (protein)
chain: QNSQLQEELRGLRETFSNFTASTEAQVKGLSTQGGNVGRKMKSLESQLEKQQKDLSEDHSSLLLHVKQFVSDLRSLSCQMAALQGNGSERTCCPVNWVEHERSCYWFSRSGKAWADADNYCRLEDAHLVVVTSWEEQKFVQHHIGPVNTWMGLHDQNGPWKWVDGTDYETGFKNWRPEQPDDWYGHGLGGGEDCAHFTDDGRWNDDVCQRPYRWVCETELDKASQEPPLL
modifications: bait human Fc-tagged dimer
B9: ADP343 (protein)
chain: MALASAAPGSIFCKQLLFSLLVLTLLCDACQKVYLRVPSHLQAETLVGKVNLEECLKSASLIRSSDPAFRILEDGSIYTTHDLILSSERKSFSIFLSDGQRREQQEIKVVLSARENKSPKKRHTKDTALKRSKRRWAPIPASLMENSLGPFPQHVQQIQSDAAQNYTIFYSISGPGVDKEPFNLFYIEKDTGDIFCTRSIDREKYEQFALYGYATTADGYAPEYPLPLIIKIEDDNDNAPYFEHRVTIFTVPENCRSGTSVGKVTATDLDEPDTLHTRLKYKILQQIPDHPKHFSIHPDTGVITTTTPFLDREKCDTYQLIMEVRDMGGQPFGLFNTGTITISLEDENDNPPSFTETSYVTEVEENRIDVEILRMKVQDQDLPNTPHSKAVYKILQGNENGNFIISTDPNTNEGVLCVVKPLNYEVNRQVILQVGVINEAQFSKAASSQTPTMCTTTVTVKIIDSDEGPECHPPVKVIQSQDGFPAGQELLGYKALDPEISSGEGLRYQKLGDEDNWFEINQHTGDLRTLKVLDRESKFVKNNQYNISVVAVDAVGRSCTGTLVVHLDDYNDHAPQIDKEVTICQNNEDFAVLKPVDPDGPENGPPFQFFLDNSASKNWNIEEKDGKTAILRQRQNLDYNYYSVPIQIKDRHGLVATHMLTVRVCDCSTPSECRMKDKSTRDVRPNVILG
modifications: bait human Fc-tagged dimer

The target of the experiment is Circumsporozoite protein (CSP) (Plasmodium falciparum (isolate 3D7), UniProt Q7K740). Nature of the experiment: AVEXIS screen signal:noise (double-corrected).
Circumsporozoite protein (CSP), sequence (Q7K740 19-374): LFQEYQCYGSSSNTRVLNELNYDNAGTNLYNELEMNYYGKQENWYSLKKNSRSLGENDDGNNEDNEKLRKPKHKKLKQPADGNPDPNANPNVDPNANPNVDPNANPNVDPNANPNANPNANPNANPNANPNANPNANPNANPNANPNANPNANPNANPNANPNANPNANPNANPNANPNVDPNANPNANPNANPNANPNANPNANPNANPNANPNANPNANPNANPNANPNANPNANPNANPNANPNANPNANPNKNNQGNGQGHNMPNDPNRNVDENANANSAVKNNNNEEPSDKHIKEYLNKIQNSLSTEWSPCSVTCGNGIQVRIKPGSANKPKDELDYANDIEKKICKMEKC
B1 came in with a binding score of 0.992.

Consider B2, for which the binding score was 0.77. Molecule B3 came in with a binding score of 1.49. As to B4, the binding score was found to be 1.73. The same measure for B5: 1.03. B6 showed a binding score of 0.743. With B7, the binding score worked out at 1.38. Consider B8, for which the binding score is 0.921. The same measure for B9: 0.814.

Values taken from publication PMC11098746 (2024).
